From patent US20100021538A1, “PHARMACEUTICAL COMPOSITIONS CONTAINING HEPARIN DERIVATIVES” (priority 2008, published 2010)

Assay: Particle size of heparin-DOCA solutions with solubilizers by electrophoretic light scattering
Assay type: physicochemical
Details: aqueous 1 mg/ml heparin-DOCA solution, solubilizer added at 0.1 mg/ml, ELS-8,000, N.D. = particles were not detected
Method: To measure the formation of self-assembled nanoparticles in aqueous solutions of heparin-DOCA and to observe the prevention of particle formation due to a solubilizer, the solubilizers shown in Table 1 were added at a concentration of 0.1 mg/ml to 1 mg/ml of heparin-DOCA solution, and electrophoretic light scattering spectrophotometry (ELS-8,000) was used to measure the size of particles in the solution.

Heparin-Deoxycholic Acid [Heparin-DOCA]
Particle Size (nm): 369.5 nm | Particle Size (nm) (listed as heparin-deoxycholic acid): 370 nm
